The domain aggregation screens of Martell et al. (2025)
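Note: 20 min heating vs room temperature control held 20 min.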

Test: soluble fraction after stress (log2 fold change); higher = more stays soluble; pooled small domains, quantitative proteomics
Conditions: stress: 75 degC
In the case of “HMPASDPNEKQILRFLTEHQVITRKETQALLDVSQSTAGRVLKAMVDNGQIKQLGGSRNTRYELPM”, the “soluble fraction (log2)” value is reported as -0.141.
With “HMPASGISSEIIYDGILIEENLRQLKKDKAWLMDQLKKKGISSVSEVFLATLNKGGSLYIDKY” the “soluble fraction (log2)” value was -0.451.
In the case of “HMPASVSAIRKYLGGGSFKGVGPALAKRIVDAFGEYTIETIENDPKQLAKVKGVSEKMALEINTQ”, the “soluble fraction (log2)” value is reported as -0.582.
With “HMPAYYQKEAVLDGRASVFAYERDPSSWYFKQLIPGTKKYRTKKIQGATTLEQAKSQALDIALGLRDEP” the “soluble fraction (log2)” value was -0.0971.
In the case of “HMPDDHFIRGYVTAVLEQVLKVPSIQVEVERGVVILRGDLPGEERQELLDAVSRIHGVARVEYIPL”, the “soluble fraction (log2)” value is reported as -0.686.
With “HMPDLSGEEQQIVDILAQRGNLQINTLVVETDIPVHKMNAILFELEMKGVVRVLAGGMYQLL” the “soluble fraction (log2)” value was -1.02.
For “HMPDPLVEIRSAVHSNYAGMIAMLGADNRVYLGREEHYSYQDGQPGQYDNRDGSLLFVSDQPDIYYFL”, the “soluble fraction (log2)” value was -1.17.
With “HMPEAITLRDLKTYSKQAASGYLDDHQLVLVEKEAHSEDVPEGQVIKQKPGAGASVKPGDKVEVTFSLGPE” the “soluble fraction (log2)” value was 0.0463.
For “HMPEKKKYGDFVSMTEEEYGKLVSEYGQEAAKRMVEILNNYKGATGKPYKSDYLAILNWVVKRIKEE”, the “soluble fraction (log2)” value was -0.0863.
With “HMPELFLFNPDTASAATFQALGFSARQAGVLIHFREALGGRFGSVEQFSKSYVVDSATLERLRPYMVF” the “soluble fraction (log2)” value was -4.13.
For “HMPEMHIYTKEGKIHITHIDENEEIKIYNPLGQIIYTGSPQDIPVLEGKGLYIIYIGKSAVEVLES”, the “soluble fraction (log2)” value was -2.2.
For “HMPENESPEEKHARFRRFAEGLMARLDENESVRDILPELKVWLDDRELDRDDQRLARNLMLTAGKRE”, the “soluble fraction (log2)” value was 0.0151.
In the case of “HMPEPLTARETEVLRLLSGGYSNREIAAAMFLAEGTIKNHVSAVLLKLGVRDRTRAVLRGLELGLIQ”, the “soluble fraction (log2)” value is reported as -2.27.
With “HMPEPPRVGETLAALRQDRALSLDELSRQAGVSKSMLSQIERNQANPTVAVVWRLANALGVPMAELLGA” the “soluble fraction (log2)” value was -0.272.
In the case of “HMPGDIRKAAILLMSLPREQAAQVLARLDPKQVEAVTIEIARLGTVTPDEQEQALKEFSQANPA”, the “soluble fraction (log2)” value is reported as 0.0238.
For “HMPGIDDAAVEHAERVLAQHIGPMARLLVRRTVPRAANLFDLHRRLGALIPESEPRTAFLSAVVT”, the “soluble fraction (log2)” value was 0.0954.
With “HMPGLSQAEAQSLLIAYLAQQGRTLELIPLGQSGDVWRFSGRESDGTVVSFFMVSRTDGTISEVPVPP” the “soluble fraction (log2)” value was -1.06.
For “HMPGRLSRREVEVIELTARGLPAAEMAVRLGISANTIEFHRRRIMQKLGVANAAEMVRRATELGW”, the “soluble fraction (log2)” value was -2.28.
With “HMPGRVITVMVNGKRVDLPFREEPYIFVDLFRYMDFDVERARGRIQLAINGKKAGYTDIIREGDSIEI” the “soluble fraction (log2)” value was -2.54.
With “HMPGTAAQARQLKAWLKENGEKPGAALPALQKAQEIYGYVPREVQQLIADALHKPLTEIYGVSTFYSQFNL” the “soluble fraction (log2)” value was -0.566.
With “HMPGTPADQVAELQTKVGTETKTGDMITQDDVKLLQTALDPLAKMNDRIQAAKILESKGIVTSDGNLRT” the “soluble fraction (log2)” value was 0.0421.
In the case of “HMPIGENIKRLRIMHGLSQKELAQIAGVSDKAVSTWENGTKEPRMGAVQKITGYFGLKKSNLIEDNGL”, the “soluble fraction (log2)” value is reported as -0.0452.
For “HMPIMDSDDKYEALGIPQEWIAVVKKAGYQTVEALKAVENPNKLHQELSVMNKKEKLGLAGLTPEMVKAWL”, the “soluble fraction (log2)” value was 0.321.
In the case of “HMPINPKVKQIYDTLKDGGADVGSEKEFNDYFFAKGKDGYNNRKEVFNTLREGGADAGKSYEEFAGWLGL”, the “soluble fraction (log2)” value is reported as 0.445.
For “HMPIPIESEISRSPGQSIYAFVQQHYGRSGRSPADMRALVGLILRLNRQIRTPLLIPFGLVVVRPT”, the “soluble fraction (log2)” value was 0.335.
With “HMPIRVGDAFESLAGVFPDEYNKALRKSTKKPVFFVPVKVEAGSGALRQKGKITFIVKDGRIDAIQIAL” the “soluble fraction (log2)” value was -1.41.
For “HMPISQGATVKHNANMRKGASTKYKVTGVLQEGEEVKILSQSNGWYKIQNSDNEKGWTYNTHINASDK”, the “soluble fraction (log2)” value was 0.0826.
In the case of “HMPKHFIDFSEGEVVSITDGPFKGFDGAISEIDNQKGKVKVMVSMFGRDTSVELDALQVKKV”, the “soluble fraction (log2)” value is reported as 0.00647.
In the case of “HMPKITTIHIDPEKISKVIGPGGKTVKKIIEETGAKIDIEDTGKIFIAAVNTEAANKAIDMINGIVA”, the “soluble fraction (log2)” value is reported as 0.101.
For “HMPKLPIIYVLDGHVNKNALTTSGKNKVWIEHELKKHHINSIKDVLIAMTDTEGKFYYQLYD”, the “soluble fraction (log2)” value was -1.77.
For “HMPKLSNNHMAVWQAIRSRTAKGEPSTRAVIRDDLKAAGMDTSKHFSRWLTKLIDLGMVVKDGENLSIR”, the “soluble fraction (log2)” value was -0.395.
With “HMPKMISPAQIKAIGAKTNNIAKASGVEQAQVYQSAVAHLGINNKSTKELTSQEASKVIEYLSTL” the “soluble fraction (log2)” value was 0.103.
In the case of “HMPKPMKATKITLQQEPRIRVDFTYDPLKVQQIKTISGARWSKSLKAWHIPYTKEAFNQLKKLFPNVEIEV”, the “soluble fraction (log2)” value is reported as -1.44.
With “HMPKSVRQSFVYSPMYRDVEYLADFLRNNNKDDSSVSASGDKLVYYGTADEIARVKSVLKGVDV” the “soluble fraction (log2)” value was -0.00252.
For “HMPLIPIAIELARHALPSLIGAIAGDKSEKVAKEVVDAALKTTGKTTPDEALHALQADPQLAHEYRLSLL”, the “soluble fraction (log2)” value was 0.982.
In the case of “HMPLKLIDVYLGRHGKKRYDVFKETGLSQQTLASANGKPAAALTGRILQAIGRTVGETPGRVLDEMLMIEQ”, the “soluble fraction (log2)” value is reported as -1.02.
For “HMPLLADLPNLLRKVLKQHPGRVVDVDLERGRQGREIYHVRVLQENGQVRGLFVDASTGELVS”, the “soluble fraction (log2)” value was -0.938.
For “HMPLQLPEPMAELARNGETARLAEALKQGLDIDLRDGKGNTLLMIAAYQGRAETVAMLLKAGA”, the “soluble fraction (log2)” value was -2.29.
With “HMPLSLESVSEGGRNDTAARIAGYLIAKGLNVDFARFFLQSWNTKNKPPLDDTEIDTIVNSIMKTHERKNQ” the “soluble fraction (log2)” value was -0.858.
